# Measurements as given in patent US6475768B1 (Forskarpatent I Syd AB, priority 2000, dated 2002).
# T1: Thermus thermophilus xylose isomerase (xylA), mutant 1024 (M1024) (Thermus thermophilus, UniProt P26997, E372G/F163L)
# T1 construct: made in house; host or cells: E. coli HB101 (crude lysate)
# T1 sequence (P26997 1-387 F163L/E372G): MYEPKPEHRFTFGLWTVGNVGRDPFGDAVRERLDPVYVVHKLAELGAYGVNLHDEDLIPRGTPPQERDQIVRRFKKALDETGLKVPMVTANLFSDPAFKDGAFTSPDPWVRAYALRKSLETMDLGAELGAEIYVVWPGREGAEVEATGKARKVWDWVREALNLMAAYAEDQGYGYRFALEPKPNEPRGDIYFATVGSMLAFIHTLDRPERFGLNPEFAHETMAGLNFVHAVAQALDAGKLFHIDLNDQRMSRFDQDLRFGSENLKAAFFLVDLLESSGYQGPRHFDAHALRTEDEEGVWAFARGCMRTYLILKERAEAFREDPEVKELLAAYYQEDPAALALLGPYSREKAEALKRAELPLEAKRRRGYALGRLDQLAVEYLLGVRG
# T2: Thermus thermophilus xylose isomerase (xylA), mutant 1026 (M1026) (Thermus thermophilus, UniProt P26997, E372G)
# T2 construct: made in house; host or cells: E. coli HB101 (crude lysate)
# T2 sequence (P26997 1-387 E372G): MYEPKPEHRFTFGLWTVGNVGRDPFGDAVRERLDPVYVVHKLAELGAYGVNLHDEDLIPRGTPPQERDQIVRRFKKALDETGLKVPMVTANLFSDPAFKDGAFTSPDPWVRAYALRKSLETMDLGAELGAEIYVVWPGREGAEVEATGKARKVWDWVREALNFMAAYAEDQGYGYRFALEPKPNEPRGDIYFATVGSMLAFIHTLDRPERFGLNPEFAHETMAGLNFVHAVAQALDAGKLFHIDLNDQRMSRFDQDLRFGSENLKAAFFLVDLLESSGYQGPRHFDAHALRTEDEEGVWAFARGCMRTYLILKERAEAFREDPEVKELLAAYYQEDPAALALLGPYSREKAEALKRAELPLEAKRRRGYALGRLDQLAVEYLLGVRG
# T3: Thermus thermophilus xylose isomerase, wild type (nucleic acid sequence SEQ ID NO: 2) (Thermus thermophilus, UniProt P26997)
# T3 sequence (P26997 1-387): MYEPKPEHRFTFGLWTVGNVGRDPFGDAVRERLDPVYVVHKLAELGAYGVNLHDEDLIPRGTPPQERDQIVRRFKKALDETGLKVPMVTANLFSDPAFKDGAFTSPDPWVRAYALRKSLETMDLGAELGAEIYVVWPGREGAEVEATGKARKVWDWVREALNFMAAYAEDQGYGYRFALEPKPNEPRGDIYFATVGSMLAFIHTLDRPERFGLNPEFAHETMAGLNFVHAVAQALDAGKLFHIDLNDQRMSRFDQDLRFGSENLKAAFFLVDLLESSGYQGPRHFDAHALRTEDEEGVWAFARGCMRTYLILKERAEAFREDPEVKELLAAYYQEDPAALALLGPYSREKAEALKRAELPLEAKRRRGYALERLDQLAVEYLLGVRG
# B1: Thermus thermophilus xylose isomerase (xylA), mutant 1021 (M1021) (Thermus thermophilus HB8; E372G/V379A) (protein)
# chain: MYEPKPEHRFTFGLWTVGNVGRDPFGDAVRERLDPVYVVHKLAELGAYGVNLHDEDLIPRGTPPQERDQIVRRFKKALDETGLKVPMVTANLFSDPAFKDGAFTSPDPWVRAYALRKSLETMDLGAELGAEIYVVWPGREGAEVEATGKARKVWDWVREALNFMAAYAEDQGYGYRFALEPKPNEPRGDIYFATVGSMLAFIHTLDRPERFGLNPEFAHETMAGLNFVHAVAQALDAGKLFHIDLNDQRMSRFDQDLRFGSENLKAAFFLVDLLESSGYQGPRHFDAHALRTEDEEGVWAFARGCMRTYLILKERAEAFREDPEVKELLAAYYQEDPAALALLGPYSREKAEALKRAELPLEAKRRRGYALGRLDQLAAEYLLGVRG
# notes: made in house; host or cells: E. coli HB101 (crude lysate)
# B2: Thermus thermophilus xylose isomerase, wild type (nucleic acid sequence SEQ ID NO: 2) (Thermus thermophilus HB8) (protein)
# chain: MYEPKPEHRFTFGLWTVGNVGRDPFGDAVRERLDPVYVVHKLAELGAYGVNLHDEDLIPRGTPPQERDQIVRRFKKALDETGLKVPMVTANLFSDPAFKDGAFTSPDPWVRAYALRKSLETMDLGAELGAEIYVVWPGREGAEVEATGKARKVWDWVREALNFMAAYAEDQGYGYRFALEPKPNEPRGDIYFATVGSMLAFIHTLDRPERFGLNPEFAHETMAGLNFVHAVAQALDAGKLFHIDLNDQRMSRFDQDLRFGSENLKAAFFLVDLLESSGYQGPRHFDAHALRTEDEEGVWAFARGCMRTYLILKERAEAFREDPEVKELLAAYYQEDPAALALLGPYSREKAEALKRAELPLEAKRRRGYALERLDQLAVEYLLGVRG
# B3: Thermus thermophilus xylose isomerase (xylA), mutant 1024 (M1024) (Thermus thermophilus HB8; E372G/F163L) (protein)
# chain: MYEPKPEHRFTFGLWTVGNVGRDPFGDAVRERLDPVYVVHKLAELGAYGVNLHDEDLIPRGTPPQERDQIVRRFKKALDETGLKVPMVTANLFSDPAFKDGAFTSPDPWVRAYALRKSLETMDLGAELGAEIYVVWPGREGAEVEATGKARKVWDWVREALNLMAAYAEDQGYGYRFALEPKPNEPRGDIYFATVGSMLAFIHTLDRPERFGLNPEFAHETMAGLNFVHAVAQALDAGKLFHIDLNDQRMSRFDQDLRFGSENLKAAFFLVDLLESSGYQGPRHFDAHALRTEDEEGVWAFARGCMRTYLILKERAEAFREDPEVKELLAAYYQEDPAALALLGPYSREKAEALKRAELPLEAKRRRGYALGRLDQLAVEYLLGVRG
# notes: as for B1
# Key:
# [1] = biological target: Thermus thermophilus xylose isomerase (xylA), mutant 1010 (M1010) (Thermus thermophilus, UniProt P26997); type: biochemical; conditions: mutant 1010, crude enzyme, 10 mM MnCl2, pH 7.0
# Description: (§1) The cells were harvested by centrifugation in the stationary phase of growth and washed once with ice cold distilled water. Washed cells were resusprended in 100 mM triethanolamine, pH 7.0, 0.5 mg/ml lysozyme (130000 U/mg), 0.25 mg/ml DNase, and 1 mM phenylmethylsulphonyl fluoride (PMSF) in dimethylsulfoxide (DMSO). The suspensions were kept at room temperature for one hour and then on ice for two hours before being put in a freezer at −20° C. The cell lysates were thawed on ice, cell debris was removed by centrifugation (1300 rpm for 15 minutes at 4° C.) and the supernatants were used as the crude enzyme preparations.
# (§2) Protein concentration was determined with the Bradford method (Bradford (1976)) using the Pierce protein reagent with bovine serum albumin as standard.
# (§3) The reaction was terminated after 10 minutes by adding 150 μl 50% trichloroaceticacid. The reaction mixture was neutralized with 185 μl 2 M Na2CO3. The formed xylulose or fructose was measured on a COBAS MIRA (Roche) automated spectrophotometer via enzymatic reduction with 0.04 or 0.5 units of Sorbitol Dehydrogenase (purchased from Roche), respectively in the presence of 0.15 mM NADH at pH 7.0, 37° C. in 200 μl reaction volume. The rate of disappearance of NADH was followed at 340 nm and the concentration of D-xylulose or D-fructose was calculated using calibration curves. […] The specific activity (U min^−1 mg^−1) was determined from the activity and the protein concentration of the crude enzyme preparations.
# (§4) The kinetic parameters Vmax (μmol min^−1 mg^−1) and Km (mM) were determined from Michaelis-Menten plots of specific activities at various substrate concentrations by nonlinear regression analysis with Sigma Plot (SSPS Inc.) software. Typically, duplicate measurements were used to determine the Km value at 6-10 concentrations of the substrate, with a concentration range covering the value of Km.
# [2] = biological target: T1, Thermus thermophilus xylose isomerase (xylA), mutant 1024 (M1024); assay: Kinetic characterisation of mutant xylose isomerase 1024 (xylose/glucose isomerase activity, xylitol inhibition); type: biochemical; conditions: mutant 1024, crude enzyme, 10 mM MnCl2, pH 7.0
# Description: as §1, §2
# (§5) The reaction was terminated after 10 minutes by adding 150 μl 50% trichloroaceticacid. The reaction mixture was neutralized with 185 μl 2 M Na2CO3. The formed xylulose or fructose was measured on a COBAS MIRA (Roche) automated spectrophotometer via enzymatic reduction with 0.04 or 0.5 units of Sorbitol Dehydrogenase (purchased from Roche), respectively in the presence of 0.15 mM NADH at pH 7.0, 37° C. in 200 μl reaction volume. The rate of disappearance of NADH was followed at 340 nm and the concentration of D-xylulose or D-fructose was calculated using calibration curves. […]
# [3] = biological target: T2, Thermus thermophilus xylose isomerase (xylA), mutant 1026 (M1026); assay: Kinetic characterisation of mutant xylose isomerase 1026 (xylose/glucose isomerase activity, xylitol inhibition); type: biochemical; conditions: mutant 1026, crude enzyme, 10 mM MnCl2, pH 7.0
# Description: as §1, §2, §5
# [4] = biological target: T3, Thermus thermophilus xylose isomerase, wild type (nucleic acid sequence SEQ ID NO: 2); conditions: crude enzyme, 10 mM MnCl2, pH 7.0
# [5] = substrate: OC1OC[C@@H](O)[C@H](O)[C@H]1O; assay: cells, lysate or membranes named; type: biochemical, Thermus thermophilus; conditions: 10 mM MnCl2, pH 7.0
# Description: as §1, §2
# as §3, with “preparations. […] The temperature optimum for the mutants were roughly the same as for the wild type enzyme except for mutant 1021, which had ˜10° C. lower temperature optimum.” for “preparations.”
# as §4
# [6] = substrate: OC[C@H]1OC(O)[C@H](O)[C@@H](O)[C@@H]1O; assay: cells, lysate or membranes named; type: biochemical, Thermus thermophilus; conditions: other: mutant 1021, crude enzyme, 10 mM MnCl2, pH 7.0
# Description: as §1, §2
# as §3, with “preparations. […] The temperature optimum for the mutants were roughly the same as for the wild type enzyme except for mutant 1021, which had ˜10° C. lower temperature optimum.” for “preparations.”
# as §4
# [7] = Xylose isomerase activity assay of crude enzyme preparations from E. coli HB101; type: biochemical
# Description: The cells were harvested by centrifugation in the stationary phase of growth and washed once with ice cold distilled water. […] The suspensions were kept at room temperature for one hour and then on ice for two hours before being put in a freezer at −20° C. The cell lysates were thawed on ice, cell debris was removed by centrifugation (1300 rpm for 15 minutes at 4° C.) and the supernatants were used as the crude enzyme preparations. Protein concentration was determined with the Bradford method (Bradford (1976)) using the Pierce protein reagent with bovine serum albumin as standard. […] The reaction mixture was neutralized with 185 μl 2 M Na2CO3. […] The rate of disappearance of NADH was followed at 340 nm and the concentration of D-xylulose or D-fructose was calculated using calibration curves. […] The specific activity (U min^−1 mg^−1) was determined from the activity and the protein concentration of the crude enzyme preparations.
# [8] = Effect of pH on the activity of the enzymes; type: biochemical; conditions: 60° C., 700 mM D-xylose, 10 mM MnCl2, pH range 5-10
# Description: The effect of pH on the activity of the enzymes was followed in the pH range 5-10 in a buffer prepared by mixing acetate, piperazine-N,N'-bis-(2-ethanolsulphonic acid) (PIPES), […] (HEPES) and glycine at final concentration 50 mM each as described by (Dekker at al. (1992) Appl. Mirobiol. Biotechnol. 36: 727-732). The pH was adjusted at 60° C. with NaOH.
# [9] = Effect of different bivalent cations on the activity of EDTA treated enzymes; type: biochemical; conditions: EDTA treated enzyme, activity with 10 mM MnCl2 at 60° C. set to 100%
# Description: Furthermore, the effect of different bivalent cations (10 mM) on the activity of EDTA treated enzymes was investigated. The specific activity with 10 mM MnCl2 at 60° C. was set to 100% for each enzyme.
# [10] = substrate: OC1OC[C@@H](O)[C@H](O)[C@H]1O; assay: cells, lysate or membranes named; conditions: other: wild type, crude enzyme, 10 mM MnCl2, pH 7.0
# [11] = cited from earlier work
# [12] = other: mutant 1021, crude enzyme
# [13] = other: mutant 1024, crude enzyme
molecule,measurement,setting,value
OC[C@H]1OC(O)[C@H](O)[C@@H](O)[C@@H]1O (some centres unmarked) [glucose],Vmax glucose,[1],0.0034 µmol/min/mg
same,Vmax glucose,[2],0.54 µmol/min/mg
same,Vmax glucose,[3],0.18 µmol/min/mg
same,Vmax glucose,[4],0.015 µmol/min/mg
"OC1OC[C@@H](O)[C@H](O)[C@H]1O (stereo partly drawn) [xylose, D-xylose]",Vmax xylose,[1],0.44 µmol/min/mg
same,Km,[1]; read-out: Km xylose,16.6 ± 2.2 mM
B1,Km,[5]; [12],25.1 ± 4.0 mM
same,Vmax,[5]; [12],0.84 µmol/min/mg
same,Km,[6],52.0 ± 4.9 mM
same,Vmax,[6],0.13 µmol/min/mg
B2,Vmax at 30° C.,"[7]; 30° C., 700 mM D-xylose, 10 mM MnCl2, pH 7.0, crude enzyme",0.014 μmol/min^−1mg^−1
same,Temp. optimum,"[7]; xylose as substrate, pH 7.0",85 °C
same,pH optimum,[8],6-7.5
same,Co^2+ (% relative activity),[9]; 10 mM Co2+,87.9%
same,Mg^2+ (% relative activity),[9]; 10 mM Mg2+,73.8%
same,Km,[10],3.44 ± 0.4 mM
same,Vmax,[10],0.043 µmol/min/mg
same,activity at 30° C.,[11],only trace activity
B3,Km,[5]; [13],89.4 ± 8.4 mM
same,Vmax,[5]; [13],3.08 µmol/min/mg
